US20250368742A1
Where two headings read alike, the source gives them in different places.

How the values were obtained:
[1] = biological target: shed MICA002 polypeptide (human) (UniProt Q29983); assay: capture ELISA (anti-hFc / antibody / shed antigen / biotin-6D4)
[2] = biological target: shed MICA008 polypeptide (human) (UniProt Q29983); assay: as above
[3] = biological target: shed MICA004 polypeptide (human) (UniProt Q29983); assay: as above
[4] = biological target: shed MICB005 polypeptide (human) (UniProt Q29980); assay: as above
[5] = biological target: shed MICA002 polypeptide (human) (UniProt Q29983); assay: as above; remark: listed apart in the source
[6] = biological target: shed MICA008 polypeptide (human) (UniProt Q29983); assay: as above; remark: listed apart in the source
[7] = biological target: shed MICA004 polypeptide (human) (UniProt Q29983); assay: as above; remark: listed apart in the source
[8] = biological target: shed MICA004 polypeptide (human) (UniProt Q29983); assay: ELISA: antibody titrated on anti-hFc plate, shed MICA004 captured, detection NKG2D-His + anti-His-HRP
[9] = biological target: shed MICA002 polypeptide (human) (UniProt Q29983); assay: capture ELISA (anti-hFc / antibody / shed antigen / biotin-6D4); remark: listed apart in the source
[10] = biological target: shed MICA008 polypeptide (human) (UniProt Q29983); assay: as above; remark: listed apart in the source
[11] = biological target: shed MICA004 polypeptide (human) (UniProt Q29983); assay: as above; remark: listed apart in the source
[12] = biological target: shed MICA002 polypeptide (human) (UniProt Q29983); assay: ELISA: antibody titrated on anti-hFc plate, shed MICA002 captured, detection NKG2D-His + anti-His-HRP
[13] = biological target: shed MICB005 polypeptide (human) (UniProt Q29980); assay: capture ELISA (anti-hFc / antibody / shed antigen / biotin-6D4); remark: listed apart in the source

| Binder | EC50 [1] | Max OD450 [1] | EC50 [2] | Max OD450 [2] | EC50 [3] | Max OD450 [3] | EC50 [4] | Max OD450 [4] | also measured |
| --- | --- | --- | --- | --- | --- | --- | --- | --- | --- |
| 6E1.1.12 (antibody, human IgG1, kappa, V domains shown) VH: QGQMQQSGAELVKPGASVKLSCKTSGFTFSDNYISWLKQKPGQSLEWIAWIYAGTGGSSYNQKFRDKAQLTVDTSSRTAYMQLSSLTTEDSAIYYCARHDYYGTSGAWFAYWGRGTLVTVSA VL: DVLMTQTPLSLPVSLGDQASISCRSSQHIVHSNENTYLEWYLQKPGQSPKLLIYKVSNRFSGVPDRFSGSGSGTDFTLKISRVEAEDLGVYYCFQGSHVPWTFGGGTKVEIKR | 0.22 µg/mL | 3.35 | 0.22 µg/mL | 0.15 | 0.42 µg/mL | 1.13 | 0.41 µg/mL | 2.42 |  |
| #40 (antibody, V domains shown) VH: QVQLQQSGPELVKPGASVKVSCKASGYAFTKYNIYWVKQSHGKSLEWIGYIDPYNGGTVYNQKFKGKATLTVDKSSSTAYMHLNSLTSEDSAVYYCATTDGYSLFTYWGQGTLVTVSA VL: DIQMTQTTSSLSASLGDRVTITCSAGQGINNYLNWYQQKPDGTVKLLIFYTSSLQSGVPSRFSGSGSGADYSLTISNLEPEDIATYYCQQYSKLPLTFGAGTKLELK | 0.31 µg/mL | 2.89 | 0.44 µg/mL | 0.13 | 0.38 µg/mL | 1.22 | 0.73 µg/mL | 0.17 |  |
| #34 (antibody, V domains shown) VH: QVQLKQSGPELVKPGASVKVSCKASGYAFTKYNIYWVKQSHGKSLEWIGYIDPYNGGTVQNQKFKGKATLTVDKSSSTAYMHLNSLTSEDSAVYYCATTDGYSLFTYWGQGTLVTVSS VL: DIVLTQSPTTMAASPGEKITITCSASSSISSNYLHWYQQKPGFSPKLLIYRTSNLASGVPARFSGSGSGTSYSLTIGTMEAEDVATYYCQQGSSIPFTFGSGTKLEIK | 0.34 µg/mL | 2.75 | 0.3 µg/mL | 0.12 | 0.46 µg/mL | 1.23 | 0.56 µg/mL | 0.17 |  |
| #38 (antibody, V domains shown) VH: QVQLQQSGAELARPGASVKLSCKASGYTFSIHWMQWVKQRPGQGLEWIGAIYPGNGDTKYTQKFKGKATLTADKSSSTAYMQLSNLASEDSAVYYCATLYGNYEAYWGQGTLVTVSA VL: DIVLTQSPASLSASVGETVTITCGASENIYGALNWYQRKQGKSPQLLIYGTTNLADGMSSRFSGSGSGRQYSLKISSLHPDDVATYYCQNVLTTPPWTFGGGTKLEIK | 0.04 µg/mL | 3.32 | 0.2 µg/mL | 0.16 | 0.09 µg/mL | 2.66 | 0.02 µg/mL | 2.97 |  |

The next lines start with results.

| EC50 [1] | Max OD450 [1] | EC50 [2] | Max OD450 [2] | EC50 [3] | Max OD450 [3] | EC50 [4] | Max OD450 [4] | Binder | also measured |
| --- | --- | --- | --- | --- | --- | --- | --- | --- | --- |
| 0.13 µg/mL | 3.16 | 0.26 µg/mL | 0.19 | 0.2 µg/mL | 1.72 | 0.72 µg/mL | 1.37 | #31 (antibody, V domains shown) VH: EVQLQQSGPELVKPGASVKVSCKASGYAFTKYNIYWVKQSHGKSLEWIGYIDPYNGGTVQNQKFKGKATLTVDKSSSTAYMHLNSLTSEDSAVYYCATTDGYSLFTYWGQGTLVTVSS VL: DIQMTQTTSSLSASLGDRVTISCRASQDIGNYLNWYQQKPDGTVKLLIYYTSRLHSGVPSRFSGSGSGTDYSLTISNLEQEDIATYFCQQGNTLPFTFGSGTKLEIK |  |
| 0.32 µg/mL | 3 | 0.38 µg/mL | 0.16 | 0.47 µg/mL | 1.31 | 0.84 µg/mL | 0.68 | #36 (antibody, V domains shown) VH: QVQLQQSGPELVKPGASVKVSCKASGYAFTKYNIYWVKQSHGKSLEWIGYIDPYNGGTVYNQKFKGKATLTVDKSSSTAYMHLNSLTSEDSAVYYCATTDGYSLFTYWGQGTLVTVSA VL: DIQMTQTTSSLSASLGDRVTISCRASQDISNYLNWYQQKPDGTVKLLIYYTSRLHSGVPSRFSGSGSGTDYSLTISNLEQEDIATYFCQQGNTLPFTFGSGTKLEIK |  |
| 0.36 µg/mL | 1.01 | 0.52 µg/mL | 0.03 | 0.34 µg/mL | 0.11 | 0.1 µg/mL | 2.86 | #39 (antibody, V domains shown) VH: QVQLQQSGAELVRPGTSVKVSCKASGYAFTDYLIEWVKQRPGQGLEWIGGINPGSGSTNYNEKFKGKAILTADKSSSTAYMQLSSLTSDDSAVYFCARLDGNYVGYWGQGTTLTVSS VL: DILLTQSPASLSASVGETVTITCRASGNIHNYLAWYQQKQGKSPQLLVYHAKTLADGVPSRFSGSGSGTQYSLKINSLQPEDFGSYYCQHFWSTPWTFGGGTKLEIK |  |
| 0.09 µg/mL | 3.3 | 0.22 µg/mL | 0.34 | 0.14 µg/mL | 2.49 |  |  | 3F9 (antibody, human IgG1, kappa, V domains shown) VH: QVQLVESGGGLVKPGGSLRLSCAASGFTFSNYAMSWIRQAPGKGLEWVSYISPGGDYIYYADSVKGRFTISRDNAKNSLYLQMNSLRAEDTAVYYCTTDRRHYGSYAMDYWGQGTLVTVSS VL: DIVMTQSPLSLPVTPGEPASISCRSSKSLLHSNLNTYLYWFLQKPGQSPQILIYRMSNLASGVPDRFSGSGSGTAFTLKISRVEAEDVGVYYCMQHLEYPFTFGPGTKLEIKR | EC50 [5]: 0.107 µg/mL; Max OD450 [5]: 1.82; EC50 [6]: 0.105 µg/mL; Max OD450 [6]: 1.15; EC50 [7]: 0.129 µg/mL; Max OD450 [7]: 1.83; EC50 [8]: 0.071 µg/mL; EC50 [9]: 0.131 µg/mL; maxOD [9]: 3.96; EC50 [10]: 0.134 µg/mL; maxOD [10]: 1.51; EC50 [11]: 0.255 µg/mL; maxOD [11]: 2.7; EC50 [12]: 0.167 µg/mL |
| 0.14 µg/mL | 3.1 | 0.22 µg/mL | 0.15 | 0.33 µg/mL | 0.89 | 0.04 µg/mL | 2.91 | 13A9 (antibody, human IgG1, kappa, V domains shown) VH: QVQLQQSGAELVRPGTSVKVSCKASGYAFTNYLIEWVKQRPGQGLEWIGAINPGSGATNYNEKFKDKARLTADKSSNTAYLQFSSLTSDDSAVYFCARFLGNYFDNWGQGATLTVSS VL: DIQMTQSPASLSASVGETVTITCRASGNIHSYLAWYQQKQGKSPQLLVYYAETLADGVPSRFSGRGSGTQYSLKINSLQPEDFGSYFCQQFWTTPYTFGGGTKVEIKR | EC50 [5]: 0.176 µg/mL; Max OD450 [5]: 1.42; EC50 [6]: 0.191 µg/mL; Max OD450 [6]: 0.48; EC50 [7]: 0.47 µg/mL; Max OD450 [7]: 0.35; EC50 [13]: 0.088 µg/mL; Max OD450 [13]: 1.28; EC50 [8]: 0.083 µg/mL; EC50 [12]: 0.06 µg/mL |
